We go through 1 molecule from publication PMC11633101 (2024).

The target of this experiment is BVDV E2 protein with 6×his tag, purified from 293F cells (bovine viral diarrhea virus (BVDV), UniProt P19711 693-1066). Put plainly: SPR.

B1: bovine CD46 protein (MedChemExpress) (receptor)
chain: CDDPPRFVSMKPQGTLKPSYSPGEQIVYECHLGFQPVTPGQVLALVCQDNNTWSSLQEGCKKRRCPTLADPTNGQVILVNGSTEFGSEVHYVCNNGYYLLGTNISYCEVSSGTGVNWSDNPPTCEKILCQPPPEIQNGKYTNSHKDVFEYNEVVTYSCDPSNGPDEYSLVGESKLTCIGNGEWSSQPPQCKVVKCVYPAIEHGTIVSGFGPKYYYKATVVLKCNEGFNLYGNSVVVCGENSTWEPELPKCIKGHPPRPTDASPPNGAEG
Take B1: the equilibrium dissociation constant (Kd) was determined as 75.1 nM.
